# Source: patent US20110318347A1
# B1: 238D2-20GS-238D4 (VHH)
# chain: EVQLVESGGGLVQTGGSLRLSCAASGFTFSSYAMSWVRQAPGKGLEWVSGIKSSGDSTRYAGSVKGRFTISRDNAKNMLYLQMYSLKPEDTAVYYCAKSRVSRTGLYTYDNRGQGTQVTVSSGGGGSGGGGSGGGGSGGGGSEVQLMESGGGLVQAGGSLRLSCAASGRTFNNYAMGWFRRAPGKEREFVAAITRSGVRSGVSAIYGDSVKDRFTISRDNAKNTLYLQMNSLKPEDTAVYTCAASAIGSGALRRFEYDYSGQGTQVTVSS
# B2: 238D2-15GS-238D4 (VHH)
# chain: EVQLVESGGGLVQTGGSLRLSCAASGFTFSSYAMSWVRQAPGKGLEWVSGIKSSGDSTRYAGSVKGRFTISRDNAKNMLYLQMYSLKPEDTAVYYCAKSRVSRTGLYTYDNRGQGTQVTVSSGGGGSGGGGSGGGGSEVQLMESGGGLVQAGGSLRLSCAASGRTFNNYAMGWFRRAPGKEREFVAAITRSGVRSGVSAIYGDSVKDRFTISRDNAKNTLYLQMNSLKPEDTAVYTCAASAIGSGALRRFEYDYSGQGTQVTVSS
# B3: 238D4-20GS-238D4 (VHH)
# chain: EVQLMESGGGLVQAGGSLRLSCAASGRTFNNYAMGWFRRAPGKEREFVAAITRSGVRSGVSAIYGDSVKDRFTISRDNAKNTLYLQMNSLKPEDTAVYTCAASAIGSGALRRFEYDYSGQGTQVTVSSGGGGSGGGGSGGGGSGGGGSEVQLMESGGGLVQAGGSLRLSCAASGRTFNNYAMGWFRRAPGKEREFVAAITRSGVRSGVSAIYGDSVKDRFTISRDNAKNTLYLQMNSLKPEDTAVYTCAASAIGSGALRRFEYDYSGQGTQVTVSS
# B4: Nanobody 237G7 (VHH, from a related filing, part only)
# VHH: EVQLVESGGGLVQPGGSLRLSCAASSFIGNYHAIVWLRQAPGKELEGVSCITSRDSITYYASFVKGRFTISRDDAKNTVYLQMNNLKPEDTAVYYCAVBTSMTCPTLIVRFNYRGQGTQVTVSS
# B5: 238D2-20GS-238C5 (VHH)
# chain: EVQLVESGGGLVQTGGSLRLSCAASGFTFSSYAMSWVRQAPGKGLEWVSGIKSSGDSTRYAGSVKGRFTISRDNAKNMLYLQMYSLKPEDTAVYYCAKSRVSRTGLYTYDNRGQGTQVTVSSGGGGSGGGGSGGGGSGGGGSEVQLMESGGGLVQAGGSLRLACAASGFTFEDYAIGWFRKAPGKEREGVSCISGSDGSTTYADSVKGRFTISTDNAKNTVYLEMNSLKPEDTAVYYCAQQYGVGGRVVCPGPYEYDVWGQGTQVTVSS
# B6: 238D2-20GS-238B10 (VHH)
# chain: EVQLVESGGGLVQTGGSLRLSCAASGFTFSSYAMSWVRQAPGKGLEWVSGIKSSGDSTRYAGSVKGRFTISRDNAKNMLYLQMYSLKPEDTAVYYCAKSRVSRTGLYTYDNRGQGTQVTVSSGGGGSGGGGSGGGGSGGGGSEVQLVESGGGFVQAGGSLRLSCETSGRPLLGYTIAWFRQVPGKEREFVAYHRWSDGANLYADSVKGRFTISGHNAKNTVSLQMNSLKPEDTAVYYCAAARMTTSNDKEYLYWGQGTQVTVSS
# B7: Nanobody 237A6 (VHH)
# VHH: EVQLVESGGGLVQAGGSLRLSCAASGSIFSLNAMGWYRQAPGKQRELVAGITSSTSTYYADSVKGRFTISRDNTKNTVYLQMNSLKPEDTAVYYCNVDCPDYYSDYECPLEDRGQGTQVTVSS
# B8: Nanobody 237D1 (VHH)
# VHH: EVQLVESGGGLAQPGGPLRLTCEASGVIYSVNDMGWYRQAPGKQRELVAVITSGGGTNYVDSVKGRFTISGDNRKKTVYLQMNSLKPEDTAVYYCSIYYSSGISTLRSWGQGTQVTVSS
# B9: 238D2-10GS-238D2 (VHH)
# chain: EVQLVESGGGLVQTGGSLRLSCAASGFTFSSYAMSWVRQAPGKGLEWVSGIKSSGDSTRYAGSVKGRFTISRDNAKNMLYLQMYSLKPEDTAVYYCAKSRVSRTGLYTYDNRGQGTQVTVSSGGGGSGGGGSEVQLVESGGGLVQTGGSLRLSCAASGFTFSSYAMSWVRQAPGKGLEWVSGIKSSGDSTRYAGSVKGRFTISRDNAKNMLYLQMYSLKPEDTAVYYCAKSRVSRTGLYTYDNRGQGTQVTVSS
# Tests used:
# [1] = target: human CXCR4 (human)
# [2] = target: CCR5 (UniProt P51681); assay: cell-based or functional assay
# [3] = target: human CXCR4 (human); assay: cell-based or functional assay
# [4] = target: human CXCR4 (human); assay: competition vs [125I]-CXCL12; potency relative to monovalent 238D2
# [5] = target: human CXCR4 (human); assay: competition vs [125I]-CXCL12; potency relative to monovalent 238D4
# [6] = target: human CXCR4 (human); assay: competition with [125I]-CXCL12 on HEK293T-CXCR4 membranes
# [7] = target: human CXCR4 (human); assay: competition vs [125I]-CXCL12, membranes of HEK293T cells expressing CXCR4
# [8] = target: human CXCR4 (human); assay: competition vs [125I]-238D2 (3 nM), membranes of HEK293T cells expressing CXCR4; Table B-3 competition vs [125I]-238D2, up to 0.5 µM; bound only
# [9] = target: human CXCR4 (human); assay: competition vs [125I]-238D4 (3 nM), membranes of HEK293T cells expressing CXCR4; Table B-3 competition vs [125I]-238D4, up to 0.5 µM; bound only
# [10] = target: human CXCR4 (human); assay: competition vs [125I]-238D2 (3 nM), membranes of HEK293T cells expressing CXCR4; Table B-3 competition vs [125I]-238D2, at 0.5 µM: no displacement
# [11] = target: human CXCR4 (human); assay: competition vs [125I]-238D4 (3 nM), membranes of HEK293T cells expressing CXCR4; Table B-3 competition vs [125I]-238D4, at 0.5 µM: no displacement
# [12] = target: human CXCR4 (human); assay: competition vs [125I]-CXCL12 (40 pM), membranes of HEK293T cells expressing CXCR4; Table B-3 competition vs [125I]-CXCL12, up to 0.5 µM; bound only
# [13] = target: human CXCR4 (human); assay: periplasmic fraction (1:10), displacement of [125I]-CXCL12, HEK293T-CXCR4 membranes; - = 0-29%, + = 30-69%, ++ = 70-100%; screening of clones (Table B-2): 30-69% displacement of [125I]-CXCL12, HEK293T-CXCR4 membranes
# [14] = target: human CXCR4 (human); assay: competition vs [125I]-CXCL12, membranes of HEK293T cells expressing CXCR4; displacement at 0.5 µM, maximum not reached
# CCR5, sequence (P51681 whole entry): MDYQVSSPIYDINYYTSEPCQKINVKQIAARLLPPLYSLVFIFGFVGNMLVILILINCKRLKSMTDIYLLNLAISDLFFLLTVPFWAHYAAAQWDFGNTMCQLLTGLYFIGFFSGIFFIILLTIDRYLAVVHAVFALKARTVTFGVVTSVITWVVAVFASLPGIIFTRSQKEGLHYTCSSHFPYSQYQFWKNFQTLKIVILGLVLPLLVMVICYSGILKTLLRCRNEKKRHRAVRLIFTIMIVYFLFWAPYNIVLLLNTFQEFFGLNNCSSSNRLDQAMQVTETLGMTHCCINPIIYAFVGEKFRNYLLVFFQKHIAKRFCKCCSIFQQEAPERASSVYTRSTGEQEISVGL
binder,measurement,setting,value
B1,"IC50 (read off the curve), migration of Jurkat cells towards 0.3 nM CXCL12",[1],0.2 nM
same,"Anti-HIV-1 activity (in nM), PBMC/BaL",[2],> 100 nM
same,"Anti-HIV-1 activity (in nM), U87.CD4.CCR5/BaL",[2],> 100 nM
same,"IC50, HIV-1 BaL, PBMC donor 1",[2],> 1 µg/mL
same,"IC50, HIV-1 BaL, PBMC donor 2",[2],> 1 µg/mL
same,"IC90, HIV-1 BaL, PBMC donor 1",[2],> 1 µg/mL
same,"IC90, HIV-1 BaL, PBMC donor 2",[2],> 1 µg/mL
same,"nM IC50, HIV-1 BAL, PBMC donor 1",[2],> 67 nM
same,"nM IC50, HIV-1 BAL, PBMC donor 2",[2],> 67 nM
same,"Anti-HIV-1 activity (in nM), MT-4/NL4.3",[3],0.25 nM
same,"Anti-HIV-1 activity (in nM), PBMC/HE",[3],2.3 nM
same,"Anti-HIV-1 activity (in nM), PBMC/NL4.3",[3],0.2 nM
same,"Anti-HIV-1 activity (in nM), U87.CD4.CXCR4/NL4.3",[3],0.35 nM
same,"Chemotaxis, Jurkat/0.3 nM CXCL12, Imax (%)",[3],100%
same,"Chemotaxis, Jurkat/0.3 nM CXCL12, pKi or pIC50",[3],10.2
same,"IC50, HIV-1 NL4.3, MT-4 cells, exp. 1",[3],0.0069 µg/mL
same,"IC50, HIV-1 NL4.3, PBMC donor 1",[3],0.0182 µg/mL
same,"IC50, HIV-1 NL4.3, PBMC donor 2",[3],0.0092 µg/mL
same,"IC50, HIV-1 UG270, PBMC donor 1",[3],0.0242 µg/mL
same,"IC50, HIV-1 UG270, PBMC donor 2",[3],0.0831 µg/mL
same,"IC90, HIV-1 NL4.3, MT-4 cells, exp. 1",[3],0.0238 µg/mL
same,"IC90, HIV-1 NL4.3, PBMC donor 1",[3],0.0972 µg/mL
same,"IC90, HIV-1 NL4.3, PBMC donor 2",[3],0.0731 µg/mL
same,"IC90, HIV-1 UG270, PBMC donor 1",[3],0.139 µg/mL
same,"IC90, HIV-1 UG270, PBMC donor 2",[3],0.168 µg/mL
same,"nM IC50, HIV-1 NL4.3, PBMC donor 1",[3],0.61 nM
same,"nM IC50, HIV-1 NL4.3, PBMC donor 2",[3],0.31 nM
same,"nM IC50, HIV-1 UG270, PBMC donor 1",[3],0.81 nM
same,"nM IC50, HIV-1 UG270, PBMC donor 2",[3],2.77 nM
same,Rel. potency,[4],27 fold
same,Rel. potency,[5],17 fold
same,IC50 (read off the curve),[6],0.5 nM
same,Displacem. (%),[7],103%
same,pKi,[7],9.44
B2,"IC50 (read off the curve), migration of Jurkat cells towards 0.3 nM CXCL12",[1],0.3 nM
same,"Anti-HIV-1 activity (in nM), PBMC/BaL",[2],> 100 nM
same,"Anti-HIV-1 activity (in nM), U87.CD4.CCR5/BaL",[2],> 100 nM
same,"IC50, HIV-1 BaL, PBMC donor 1",[2],> 1 µg/mL
same,"IC50, HIV-1 BaL, PBMC donor 2",[2],> 1 µg/mL
same,"IC90, HIV-1 BaL, PBMC donor 1",[2],> 1 µg/mL
same,"IC90, HIV-1 BaL, PBMC donor 2",[2],> 1 µg/mL
same,"nM IC50, HIV-1 BAL, PBMC donor 1",[2],> 67 nM
same,"nM IC50, HIV-1 BAL, PBMC donor 2",[2],> 67 nM
same,"Anti-HIV-1 activity (in nM), MT-4/HE",[3],0.16 nM
same,"Anti-HIV-1 activity (in nM), MT-4/NL4.3",[3],0.25 nM
same,"Anti-HIV-1 activity (in nM), PBMC/HE",[3],1.5 nM
same,"Anti-HIV-1 activity (in nM), PBMC/NL4.3",[3],0.5 nM
same,"Anti-HIV-1 activity (in nM), U87.CD4.CXCR4/NL4.3",[3],0.36 nM
same,"Chemotaxis, Jurkat/0.3 nM CXCL12, Imax (%)",[3],107%
same,"Chemotaxis, Jurkat/0.3 nM CXCL12, pKi or pIC50",[3],9.86
same,"IC50, HIV-1 NL4.3, MT-4 cells, exp. 1",[3],0.0166 µg/mL
same,"IC50, HIV-1 NL4.3, PBMC donor 1",[3],0.01 µg/mL
same,"IC50, HIV-1 NL4.3, PBMC donor 2",[3],0.0179 µg/mL
same,"IC50, HIV-1 UG270, PBMC donor 1",[3],0.0212 µg/mL
same,"IC50, HIV-1 UG270, PBMC donor 2",[3],0.0894 µg/mL
same,"IC90, HIV-1 NL4.3, MT-4 cells, exp. 1",[3],0.0711 µg/mL
same,"IC90, HIV-1 NL4.3, PBMC donor 1",[3],0.11 µg/mL
same,"IC90, HIV-1 NL4.3, PBMC donor 2",[3],0.0341 µg/mL
same,"IC90, HIV-1 UG270, PBMC donor 1",[3],0.0789 µg/mL
same,"IC90, HIV-1 UG270, PBMC donor 2",[3],0.17 µg/mL
same,"nM IC50, HIV-1 NL4.3, PBMC donor 1",[3],0.33 nM
same,"nM IC50, HIV-1 NL4.3, PBMC donor 2",[3],0.6 nM
same,"nM IC50, HIV-1 UG270, PBMC donor 1",[3],0.71 nM
same,"nM IC50, HIV-1 UG270, PBMC donor 2",[3],2.98 nM
same,Rel. potency,[4],28 fold
same,Rel. potency,[5],17 fold
same,IC50 (read off the curve),[6],0.5 nM
same,Displacem. (%),[7],92%
same,pKi,[7],9.45
B3,Rel. potency,[5],4.4 fold
same,IC50 (read off the curve),[6],2 nM
same,Displacem. (%),[7],96%
same,pKi,[7],8.85
B4,pKi,[8],< 6.3
same,pKi,[9],< 6.3
same,Displacem. (%),[10],0%
same,Displacem. (%),[11],0%
same,pKi,[12],< 6.3
same,percent inhibition of specific [125I]-CXCL12 binding,[13],30 to 69%
B5,Rel. potency,[4],0.18 fold
same,Displacem. (%),[7],110%
same,pKi,[7],7.35
B6,Rel. potency,[4],< 0.1 fold
same,pKi,[7],< 7
same,Displacem. (%),[14],43%
B7,pKi,[8],< 6.3
same,pKi,[9],< 6.3
same,Displacem. (%),[10],0%
same,Displacem. (%),[11],0%
same,pKi,[12],< 6.3
same,percent inhibition of specific [125I]-CXCL12 binding,[13],30 to 69%
B8,pKi,[8],< 6.3
same,pKi,[9],< 6.3
same,Displacem. (%),[10],0%
same,Displacem. (%),[11],0%
same,pKi,[12],< 6.3
same,percent inhibition of specific [125I]-CXCL12 binding,[13],30 to 69%
B9,Rel. potency,[4],14 fold
same,Displacem. (%),[7],95%
same,pKi,[7],9.16
